B1: CD163 SRCR 1-5 (residues 42-578) (domain or fragment)
chain: SSLGGTDKELRLVDGENKCSGRVEVKVQEEWGTVCNNGWSMEAVSVICNQLGCPTAIKAPGWANSSAGSGRIWMDHVSCRGNESALWDCKHDGWGKHSNCTHQQDAGVTCSDGSNLEMRLTRGGNMCSGRIEIKFQGRWGTVCDDNFNIDHASVICRQLECGSAVSFSGSSNFGEGSGPIWFDDLICNGNESALWNCKHQGWGKHNCDHAEDAGVICSKGADLSLRLVDGVTECSGRLEVRFQGEWGTICDDGWDSYDAAVACKQLGCPTAVTAIGRVNASKGFGHIWLDSVSCQGHEPAIWQCKHHEWGKHYCNHNEDAGVTCSDGSDLELRLRGGGSRCAGTVEVEIQRLLGKVCDRGWGLKEADVVCRQLGCGSALKTSYQVYSKIQATNTWLFLSSCNGNETSLWDCKNWQWGGLTCDHYEEAKITCSAHREPRLVGGDIPCSGRVEVKHGDTWGSICDSDFSLEAASVLCRELQCGTVVSILGGAHFGEGNGQIWAEEFQCEGHESHLSLCPVAPRPEGTCSHSRDVGVVCS

Tests used:
[1] = target: haptoglobin-hemoglobin complex, Hp(1-1)Hb (αβHb bound to dimeric Hp1-1) (human, UniProt P00738-2;P00738;P69905;P68871); test: SPR
[2] = target: B1; test: SPR

| Kd [1] [nM] | Kd [2] [µM] | Binder |
| --- | --- | --- |
| 766 |  | B1 |
|  | 43.8 | hemoglobin (Hb) (complex) chain 1: not shown chain 2: not shown |

From publication PMC11685794 (Nature Communications, 2024)
